Test results reported in FireProtDB (doi:10.1093/protein/12.10.841).

Conditions: Homo sapiens; pH 2.7; Thermal; DSC; glycine 0.05 M; reversible: yes; whole UniProt chain shown

B1: Lysozyme C wild type, P61626 (protein)
chain: MKALIVLGLVLLSVTVQGKVFERCELARTLKRLGMDGYRGISLANWMCLAKWESGYNTRATNYNAGDRSTDYGIFQINSRYWCNDGKTPGAVNACHLSCSALLQDNIADAVACAKRVVRDPQGIRAWVAWRNRCQNRDVRQYVQGCGV
Question: For B1, which Tm is on record?
Answer: 64.9 °C

Question: And the “heat capacity change of unfolding” value?
Answer: 1.58 kcal/mol/K

Question: What about the “unfolding enthalpy (calorimetric)” value of the same protein?
Answer: 114 kcal/mol

Question: What about the “unfolding enthalpy (van 't Hoff)” value of the same protein?
Answer: 120 kcal/mol
